In the supplement of paper PMC10219994 one finds ligation selection enrichment data, which are given here for 44 variants.

± gives the standard deviation of the averaged measurements.

B1: library; a variant is named by its letters at N, in order (parent)
chain: GAGACCGCAACTGAAAAGTTGTGGNNNNNATAGTGAGTCGCTGCCTGCAAAGACACAACT

In the data set the parent is B1. Nature of the data set: ligation selection enrichment (abundance after / before one-round selection) (fold); higher = more template-directed ligation activity. The following applies: with T7Psub CACGGAUGCUAAUACGACUCACUAUA; MgCl2 25 mM; 42 °C; 4 h; pH 8.5. The procedure, abridged:
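RNA ligase library with five randomized core positions (0.75 μM, T7-transcribed) was reacted with RNA substrate (6 μM) in 50 mM EPPS pH 8.5, 25 mM MgCl2 at 42 °C for 4 h, in two independent experiments. Ligated products were PAGE-purified, reverse transcribed, barcoded by PCR and MiSeq-sequenced. Reads with quality score ≥30 at all randomized positions were counted. Enrichment was abundance after ligation divided by abundance before ligation.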
Consider GAGACCGCAACTGAAAAGTTGTGGTTATTATAGTGAGTCGCTGCCTGCAAAGACACAACT [TTATT], for which the ligation selection enrichment amounted to 0.206 ± 0.071.
Take GAGACCGCAACTGAAAAGTTGTGGTTATGATAGTGAGTCGCTGCCTGCAAAGACACAACT [TTATG]: the ligation selection enrichment is 0.377 ± 0.02.
GAGACCGCAACTGAAAAGTTGTGGTTATAATAGTGAGTCGCTGCCTGCAAAGACACAACT [TTATA]: the ligation selection enrichment amounted to 0.465 ± 0.12.
Consider GAGACCGCAACTGAAAAGTTGTGGTTATCATAGTGAGTCGCTGCCTGCAAAGACACAACT [TTATC], for which the ligation selection enrichment was determined as 0.152 ± 0.02.
Take GAGACCGCAACTGAAAAGTTGTGGCTACAATAGTGAGTCGCTGCCTGCAAAGACACAACT [CTACA]: the ligation selection enrichment turned out to be 0.114 ± 0.0039.
On to GAGACCGCAACTGAAAAGTTGTGGCTACTATAGTGAGTCGCTGCCTGCAAAGACACAACT [CTACT], for which the ligation selection enrichment is 0.785 ± 0.19.
Take GAGACCGCAACTGAAAAGTTGTGGCTACCATAGTGAGTCGCTGCCTGCAAAGACACAACT [CTACC]: the ligation selection enrichment was determined as 0.116 ± 0.021.
Take GAGACCGCAACTGAAAAGTTGTGGCTACGATAGTGAGTCGCTGCCTGCAAAGACACAACT [CTACG]: the ligation selection enrichment was found to be 0.429 ± 0.14.
The value for GAGACCGCAACTGAAAAGTTGTGGTTCATATAGTGAGTCGCTGCCTGCAAAGACACAACT [TTCAT] was 3.73 ± 1.1; that for GAGACCGCAACTGAAAAGTTGTGGTTCACATAGTGAGTCGCTGCCTGCAAAGACACAACT [TTCAC] was 0.38 ± 0.036; that for GAGACCGCAACTGAAAAGTTGTGGTTCAAATAGTGAGTCGCTGCCTGCAAAGACACAACT [TTCAA] was 0.427 ± 0.13.
For the variant GAGACCGCAACTGAAAAGTTGTGGTTCAGATAGTGAGTCGCTGCCTGCAAAGACACAACT [TTCAG], the ligation selection enrichment is 0.375 ± 0.049.
For the variant GAGACCGCAACTGAAAAGTTGTGGCTCACATAGTGAGTCGCTGCCTGCAAAGACACAACT [CTCAC], the ligation selection enrichment was determined as 0.0889 ± 0.01.
With GAGACCGCAACTGAAAAGTTGTGGCTCAAATAGTGAGTCGCTGCCTGCAAAGACACAACT [CTCAA], the ligation selection enrichment turned out to be 0.116 ± 0.038.
On to GAGACCGCAACTGAAAAGTTGTGGCTCAGATAGTGAGTCGCTGCCTGCAAAGACACAACT [CTCAG], for which the ligation selection enrichment was found to be 0.169 ± 0.011.
On to GAGACCGCAACTGAAAAGTTGTGGCTCATATAGTGAGTCGCTGCCTGCAAAGACACAACT [CTCAT], for which the ligation selection enrichment amounted to 0.104 ± 0.013.
For GAGACCGCAACTGAAAAGTTGTGGATAACATAGTGAGTCGCTGCCTGCAAAGACACAACT [ATAAC], the ligation selection enrichment came out at 0.204 ± 0.038.
The value for GAGACCGCAACTGAAAAGTTGTGGATAAAATAGTGAGTCGCTGCCTGCAAAGACACAACT [ATAAA] was 0.228 ± 0.05.
With GAGACCGCAACTGAAAAGTTGTGGATAATATAGTGAGTCGCTGCCTGCAAAGACACAACT [ATAAT], the ligation selection enrichment was 2.48 ± 0.27.
With GAGACCGCAACTGAAAAGTTGTGGATAAGATAGTGAGTCGCTGCCTGCAAAGACACAACT [ATAAG], the ligation selection enrichment is 0.373 ± 0.099.
GAGACCGCAACTGAAAAGTTGTGGGGTTTATAGTGAGTCGCTGCCTGCAAAGACACAACT [GGTTT]: the ligation selection enrichment turned out to be 0.452 ± 0.082.
With GAGACCGCAACTGAAAAGTTGTGGGGTTGATAGTGAGTCGCTGCCTGCAAAGACACAACT [GGTTG], the ligation selection enrichment is 3.91 ± 0.67.
As for GAGACCGCAACTGAAAAGTTGTGGTTACCATAGTGAGTCGCTGCCTGCAAAGACACAACT [TTACC], the ligation selection enrichment was 0.142 ± 0.02.
With GAGACCGCAACTGAAAAGTTGTGGTTACAATAGTGAGTCGCTGCCTGCAAAGACACAACT [TTACA], the ligation selection enrichment was found to be 0.193 ± 0.00088.
For GAGACCGCAACTGAAAAGTTGTGGTTACGATAGTGAGTCGCTGCCTGCAAAGACACAACT [TTACG], the ligation selection enrichment is 0.5128 ± 0.0029.
With GAGACCGCAACTGAAAAGTTGTGGTTACTATAGTGAGTCGCTGCCTGCAAAGACACAACT [TTACT], the ligation selection enrichment turned out to be 0.603 ± 0.42.
The value for GAGACCGCAACTGAAAAGTTGTGGCTAGCATAGTGAGTCGCTGCCTGCAAAGACACAACT [CTAGC] was 0.123 ± 0.0069.
As to GAGACCGCAACTGAAAAGTTGTGGCTAGGATAGTGAGTCGCTGCCTGCAAAGACACAACT [CTAGG], the ligation selection enrichment was 0.212 ± 0.06.
With GAGACCGCAACTGAAAAGTTGTGGCTAGTATAGTGAGTCGCTGCCTGCAAAGACACAACT [CTAGT] the figure was 0.209 ± 0.029; with GAGACCGCAACTGAAAAGTTGTGGCTAGAATAGTGAGTCGCTGCCTGCAAAGACACAACT [CTAGA], 0.263 ± 0.038; with GAGACCGCAACTGAAAAGTTGTGGGTAACATAGTGAGTCGCTGCCTGCAAAGACACAACT [GTAAC], 0.305 ± 0.011.
Turning to GAGACCGCAACTGAAAAGTTGTGGGTAATATAGTGAGTCGCTGCCTGCAAAGACACAACT [GTAAT], the ligation selection enrichment was found to be 4.35 ± 0.56.
Turning to GAGACCGCAACTGAAAAGTTGTGGGTAAAATAGTGAGTCGCTGCCTGCAAAGACACAACT [GTAAA], the ligation selection enrichment came out at 0.321 ± 0.067.
Consider GAGACCGCAACTGAAAAGTTGTGGGTAAGATAGTGAGTCGCTGCCTGCAAAGACACAACT [GTAAG], for which the ligation selection enrichment is 0.509 ± 0.011.
The value for GAGACCGCAACTGAAAAGTTGTGGTTAGTATAGTGAGTCGCTGCCTGCAAAGACACAACT [TTAGT] was 0.265 ± 0.074; that for GAGACCGCAACTGAAAAGTTGTGGTTAGGATAGTGAGTCGCTGCCTGCAAAGACACAACT [TTAGG] was 0.306 ± 0.061.
GAGACCGCAACTGAAAAGTTGTGGTTAGAATAGTGAGTCGCTGCCTGCAAAGACACAACT [TTAGA]: the ligation selection enrichment turned out to be 0.304 ± 0.054.
The value for GAGACCGCAACTGAAAAGTTGTGGTTAGCATAGTGAGTCGCTGCCTGCAAAGACACAACT [TTAGC] was 0.139 ± 0.035; that for GAGACCGCAACTGAAAAGTTGTGGAGTTTATAGTGAGTCGCTGCCTGCAAAGACACAACT [AGTTT] was 0.427 ± 0.11; that for GAGACCGCAACTGAAAAGTTGTGGAGTTGATAGTGAGTCGCTGCCTGCAAAGACACAACT [AGTTG] was 3.78 ± 0.71.
For GAGACCGCAACTGAAAAGTTGTGGATATTATAGTGAGTCGCTGCCTGCAAAGACACAACT [ATATT], the ligation selection enrichment is 0.203 ± 0.037.
Consider GAGACCGCAACTGAAAAGTTGTGGATATAATAGTGAGTCGCTGCCTGCAAAGACACAACT [ATATA], for which the ligation selection enrichment turned out to be 0.239 ± 0.089.
As for GAGACCGCAACTGAAAAGTTGTGGATATCATAGTGAGTCGCTGCCTGCAAAGACACAACT [ATATC], the ligation selection enrichment was 0.177 ± 0.029.
As for GAGACCGCAACTGAAAAGTTGTGGATATGATAGTGAGTCGCTGCCTGCAAAGACACAACT [ATATG], the ligation selection enrichment worked out at 1.01 ± 0.061.
